The results in this text go back to patent publication US20120316071A1 (published 2012).

Assay [1] concerns the target T1, Recombinant Human DLL4 (delta-like protein 4) (human, UniProt Q9NR61 27-524).
T1 construct: Bought recombinant protein (R&D Systems Cat#1506-D4/CF), spotted on the MSD plate; also called rHuman DLL4; Delta-like 4
Briefly: ECL Multispot (MSD) binding assay, DLL4 spotted on plate, 10 nM Fab; ECL signal over blank spot.

Assay [2] deals with T2, rHuman EGF R/Fc Chimera, CF (R&D Systems Cat#344-ER) (human, UniProt P00533 25-645).
T2 construct: Bought recombinant protein; also called epidermal growth factor receptor; Fc part of the bought chimera not given
Briefly: ECL multispot (MSD), antigen spotted, 10 nM Fab; blank spot of this row 271.

The target of assay [3] is T3, rHuman Notch-1/Fc Chimera, CF (R&D Systems Cat#3647-TK) (human, UniProt P46531 19-526).
T3 construct: Bought recombinant protein; Fc part of the bought chimera not given
The assay is described as above.

Assay [4] deals with T4, rHuman CD44/Fc Chimera, CF (R&D Systems Cat#3660-CD) (human, UniProt P16070 21-220).
T4 construct: Bought recombinant protein; Fc part of the bought chimera not given
Described as above.

Assay [5] has as its target T5, rHuman P-Cadherin/Fc Chimera, CF (R&D Systems Cat#861-PC) (human, UniProt P22223 108-654).
T5 construct: Bought recombinant protein; Fc part of the bought chimera not given
The assay is described as above.

Assay [6] deals with T6, rHuman IGF-1 sR, (IGF-1 sR), CF (R&D Systems Cat#391-GR) (human, UniProt P08069 31-932).
T6 construct: Bought recombinant soluble receptor; also called insulin-like growth factor-1 soluble receptor
Described as above.

Assay [7] deals with T7, rHuman Erythropoietin R/Fc Chimera, CF (R&D Systems Cat#963-ER) (human, UniProt P19235 25-250).
T7 construct: Bought recombinant protein; also called EPO R; EPO R/Fc; Fc part of the bought chimera not given
T7 sequence (looked up): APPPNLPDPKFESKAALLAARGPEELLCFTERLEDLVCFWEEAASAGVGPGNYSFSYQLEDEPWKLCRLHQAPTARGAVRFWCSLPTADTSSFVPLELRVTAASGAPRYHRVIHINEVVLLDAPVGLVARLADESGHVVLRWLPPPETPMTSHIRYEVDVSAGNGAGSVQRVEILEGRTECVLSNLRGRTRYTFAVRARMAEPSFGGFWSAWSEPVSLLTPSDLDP
Described as above.

Assay [8] deals with T8, rHuman ErbB2/Fc Chimera, CF (R&D Systems Cat#1129-ER) (human, UniProt P04626 23-652).
T8 construct: Bought recombinant protein; also called human epidermal growth factor 2 receptor; Fc part of the bought chimera not given
Described as above.

Assay [9] addresses T9, rHuman CD44/Fc Chimera, CF (R&D Systems Cat#3660-CD) (human, UniProt P16070 21-220).
T9 construct: Bought recombinant protein; Fc part of the bought chimera not given
Briefly: ECL multispot (MSD) assay, antigen spotted on plate, 20 nM Fab.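 Also: purified Fab bound to plate-spotted antigen for 1 h at 20 °C, labelled detection antibody added, ratio of antigen ECL signal to same-well blank, ratio ≥4 counted as binder.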

In assay [10] the target is T10, rHuman EGF R/Fc Chimera, CF (R&D Systems Cat#344-ER) (human, UniProt P00533 25-645).
T10 construct: Bought recombinant protein; also called epidermal growth factor receptor; Fc part of the bought chimera not given
The assay is described as above.

Assay [11] concerns the target T11, rHuman ErbB2/Fc Chimera, CF (R&D Systems Cat#1129-ER) (human, UniProt P04626 23-652).
T11 construct: Bought recombinant protein; also called human epidermal growth factor 2 receptor; Fc part of the bought chimera not given
Described as above.

Assay [12] has as its target T12, rHuman Notch-1/Fc Chimera, CF (R&D Systems Cat#3647-TK) (human, UniProt P46531 19-526).
T12 construct: Bought recombinant protein; Fc part of the bought chimera not given
The assay is described as above.

Assay [13] has as its target T13, rHuman IGF-1 sR, CF (R&D Systems Cat#391-GR) (human, UniProt P08069 31-932).
T13 construct: Bought soluble receptor; also called insulin-like growth factor-1 soluble receptor
The description is as above.

In assay [14] the target is T14, Recombinant Human DLL4 (R&D Systems Cat#1506-D4/CF) (human, UniProt Q9NR61 27-524).
T14 construct: Bought recombinant protein; also called delta-like protein 4; rHuman DLL4
Described as above.

Assay [15] concerns the target T15, rHuman P-Cadherin/Fc Chimera, CF (R&D Systems Cat#861-PC) (human, UniProt P22223 108-654).
T15 construct: Bought recombinant protein; Fc part of the bought chimera not given
The description is as above.

For assay [16], the target named is T16, rHuman ErbB2/Fc Chimera, CF (R&D Systems Cat#1129-ER) (human, UniProt P04626 23-652).
T16 construct: Bought Fc chimera; also called human epidermal growth factor 2 receptor; Fc part of the bought chimera not given
Briefly: Multispot ECL (MSD) binding screen, antigen spotted on plate; hit = signal/blank >= 4.

B1: Fab VH1-46_IGHD6-6*01_IGHJ1*01 S102A/S103P/S104F H111S & L6_IGKJ1*01 (Fab, V domains shown)
VH: QVQLVQSGAEVKKPGASVKVSCKASGYTFTSYYMHWVRQAPGQGLEWMGIINPSGGSTSYAQKFQGRVTMTRDTSTSTVYMELSSLRSEDTAVYYCAREEYAPFSAEYFQSWGQGTLVTVSS
VL: not shown
notes: Fab format is as for m1 (CH1 with His6/Flag from Plasmid A, kappa CL from Plasmid C); also called APF H111S
For the molecule B1, in assay [1], the Signal/Noise is 24.

B2: Fab VH1-46_IGHD6-6*01_IGHJ1*01 S102A/S103P/S104F G55W & L6_IGKJ1*01 (Fab, V domains shown)
VH: QVQLVQSGAEVKKPGASVKVSCKASGYTFTSYYMHWVRQAPGQGLEWMGIINPSWGSTSYAQKFQGRVTMTRDTSTSTVYMELSSLRSEDTAVYYCAREEYAPFSAEYFQHWGQGTLVTVSS
VL: not shown
notes: Tested as Fab (CH1 with His6 and Flag tags, kappa CL); also called APF G55W
In the case of B2, the ECL signal in assay [2] was found to be 312; in assay [3] it was 327; in [4], 159; in assay [5] it was 391; in assay [6], 250; in [7] it was 296. The ECL signal in assay [8] is 334.

B3: Fab VH3-23_IGHD2-21*01>3_IGHJ6*01 H100E/S108P/Y113G Y60A & V2-13_IGLJ2*01 (Fab, V domains shown)
VH: EVQLLESGGGLVQPGGSLRLSCAASGFTFSSYAMSWVRQAPGKGLEWVSSISGSGGSTYAADSVKGRFTISRDNSKNTLYLQMNSLRAEDTAVYYCAKEEIVVVIAIPYYYYGYGMDVWGQGTLVTVSS
VL: SSELTQDPAVSVALGQTVRITCQGDSLRSYYASWYQQKPGQAPVLVIYGKNNRPSGIPDRFSGSSSGNTASLTITGAQAEDEADYYCNSRDSSGNHLVVFGGGTKLTVL
notes: Tested as a Fab made in E. coli; also called EPG Y60A
As for B3, the “ECL signal/blank ratio (read-out not given)” value in assay [9] was 1.5; in [10], 6.2; in assay [11], 11.5; in assay [12], 2.6; in assay [13] it was 1.2; in assay [14] it was 2.3. In addition, the “ECL signal/blank ratio (read-out not given)” value in [15] was found to be 25.3.

B4: Fab VH1-69_IGHD1-1*01_IGHJ6*01 & A17_IGKJ1*01 (Fab, V domains shown)
VH: QVQLVQSGAEVKKPGSSVKVSCKASGGTFSSYAISWVRQAPGQGLEWMGGIIPIFGTANYAQKFQGRVTITADKSTSTAYMELSSLRSEDTAVYYCARGYNWNDDYYYYYGMDVWGQGTTVTVSS
VL: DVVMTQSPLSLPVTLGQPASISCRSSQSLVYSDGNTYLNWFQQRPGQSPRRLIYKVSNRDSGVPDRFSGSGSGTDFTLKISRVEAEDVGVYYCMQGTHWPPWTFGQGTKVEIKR
notes: Fab; expressed in E. coli from Plasmid A (CH1, His6 and Flag tags) and Plasmid C (kappa CL)
In the case of B4, the binding result in assay [16] is listed as “binds”.

B5: Fab VH2-5_IGHD7-27*01_IGHJ2*01 & L2_IGKJ1*01 (Fab, V domains shown)
VH: QITLKESGPTLVKPTQTLTLTCTFSGFSLSTSGVGVGWIRQPPGKALEWLALIYWNDDKRYSPSLKSRLTITKDTSKNQVVLTMTNMDPVDTATYYCAHRPNWGYWYFDLWGRGTLVTVSS
VL: not shown
On to B5, for which the binding result in assay [16] is given as “binds”.
